B1: K8-355 (antibody, mouse IgG1, V domains shown)
VH: QIQLVQSGPELKKPGETVKISCKASKYTFTNYGMNWVKQAPGKVLRWMGWINTYTGEPTYADDFKGRFAFSLETSASTAYLQINNLKNEDMATYFCATTTLITYYFDYWGQGTTLTVSS
VL: DIQMTQTTSSLSASLGDRVTISCRSSQDISKYLNWYQQKPDGTVKLLIYYTSRLHSGVPSRFSGSGSGTDYSLTISNLEQEDIATYFCQQGDTVPWTFGGGTKLEIK

Assays:
[1] = molecular target: HLA-DR on solid tumor cell lines C32, HT-144 (melanoma) and OVCAR-5 (ovarian) (human); assay: cell-based or functional assay
[2] = molecular target: HLA-DR on solid tumor cell lines C32, HT-144 (melanoma) and OVCAR-5 (ovarian) (human, UniProt P01903 26-254; P01911 30-266); assay: cell-based or functional assay

| Molecule | specific cell death in C32 and HT-144 cells, 24 hour assay, 10 µg/ml [1] [%] | specific cell death in C32 and HT-144 cells, 24 hour assay, 10 µg/ml [2] [%] |
| --- | --- | --- |
| L227 (anti-HLA-DR β, ATCC HB-96) (antibody) | 40 |  |
| 1D10 (antibody) | 5 to 15 |  |
| B1 |  | ~40 |
